In patent publication US20210093667 one finds activity data, which are given here for one substance.

The test system of data set [1] is dPspCas13b-ADAR2DD(E488Q) (REPAIRv1) H133A,H1058A (Prevotella sp. P5-125 / Homo sapiens). Nature of the data set: cell_activity.
Data set [2] has as its system dPspCas13b-ADAR1DD H133A,H1058A (Prevotella sp. P5-125 / Homo sapiens). Nature of the data set: cell_activity. The following applies: on-target A-to-I RNA editing.

For the substance “Cluc W85X targeting guide ; Cluc W85X transcript (254 A>G site)”, the activity in data set [1] (10 ng Cas13-ADAR transfected) amounted to 80 % editing; in data set [1] (150 ng Cas13-ADAR transfected), 83 % editing; in data set [1] (on-target A-to-I RNA editing) it was 71 % editing; in data set [2], 29 % editing.
